# Test results published in patent US10500256B2, “Polymers for delivery of therapeutic proteins” (BOARD OF REGENTS, THE UNIVERSITY OF TEXAS SYSTEM, priority 2014, dated 2019).
# Key:
# [1] = in vivo absorption of compounds with similar Caco-2 permeability; cited from earlier work
# [2] = Loading and release of salmon calcitonin, urokinase and Rituxan from 1:2 P(IA-co-NVP) microparticles; format: physicochemical; settings: 3 mol % TEGDMA; for Loading Level: protein loading solution 200 μg/mL; for Percent Release, t = 24 h / Protein Released, t = 24 h: t=0-1 h pH 3, then pH 7.4
# Text: In an additional experiment, the loading and release of urokinase was also compared to that of sCT and rituximab using P(IA-co-NVP) microparticles synthesized with a monomer ratio of 1:2 IA to NVP. This experiment utilized urokinase as another high pI protein (pI=8.66) with a molecular weight (54.0 kDa) between that of salmon calcitonin (3.4 kDa) and rituximab (144 kDa), allowing us to see the effects across a range of sizes, rather than just two endpoints. Urokinase is used clinically as a thrombolytic agent for myocardial infarction, pulmonary embolism, and deep vein thrombosis.
# This difference arises from two results. First, the hydrogels used in this experiment were crosslinked using 3 mol % TEGDMA in the monomer feed. […] Further, this experiment utilized loading solutions of proteins at only 200 μg/mL, rather than at 400 μg/mL as was used in the preceding experiment. […] With lower loading levels comes both lower overall delivery and lower percent release, as the lower loading level means less protein to be released even at 100% efficiency and, since concentration difference is the driving force for diffusion, less entropic gain due to diffusive release which therefore shifts the equilibrium toward coulombic binding rather than diffusive release.
# Caco-2 monolayer [3] = settings: cited from earlier work
# Caco-2 monolayer [4] = experiment: Transport across Caco-2 monolayer (literature data); format: in vitro ADME, human; settings: over the 3 h average residence time, assuming constant permeability
# Text: Aside from limited delivery potential from the microparticle carriers, loss of bioavailability resulting from intestinal enzymatic degradation and low intestinal absorption should also be accounted for.
compound,measurement,setting,value
COc1cccc2c1C(=O)c1c(O)c3c(c(O)c1C2=O)C[C@@](O)(C(=O)CO)C[C@@H]3O[C@H]1C[C@H](N)[C@H](O)[C@H](C)O1 [doxorubicin],Absorption,[1],5%
Urokinase,Loading Level,[2],19.0 ± 1.1 μg/mg hydrogel
same,Loading Level,[2]; listed as urokinase,19.0 μg/mg hydrogel
same,"Percent Release, t = 24 h",[2],14.2 ± 3.2%
same,"Protein Released, t = 24 h",[2],2.7 ± 0.5 μg/mg hydrogel
Rituxan: large monoclonal antibody rituximab (144 kDa),Loading Level,[2],24.1 ± 1.5 μg/mg hydrogel
same,Loading Level,[2]; listed as rituximab,24.1 μg/mg hydrogel
same,"Percent Release, t = 24 h",[2],20.0 ± 3.6%
same,"Protein Released, t = 24 h",[2],4.8 ± 1.1 μg/mg hydrogel
1-deamino-8-D-arginine-vasopressin,Apparent permeability in Caco-2 cultures,Caco-2 monolayer [3]; Caco-2,1.3×10^−7
CC(C)C[C@H](NC(=O)[C@H](CCCCN)NC(=O)CNC(=O)[C@H](CC(C)C)NC(=O)[C@@H](NC(=O)[C@@H]1CSSC[C@H](N)C(=O)N[C@@H](CO)C(=O)N[C@@H](CC(N)=O)C(=O)N[C@@H](CC(C)C)C(=O)N[C@@H](CO)C(=O)N[C@@H]([C@@H](C)O)C(=O)N1)C(C)C)C(=O)N[C@@H](CO)C(=O)N[C@@H](CCC(N)=O)C(=O)N[C@@H](CCC(=O)O)C(=O)N[C@@H](CC(C)C)C(=O)N[C@@H](Cc1c[nH]cn1)C(=O)N[C@@H](CCCCN)C(=O)N[C@@H](CC(C)C)C(=O)N[C@@H](CCC(N)=O)C(=O)N[C@H](C(=O)N[C@@H](Cc1ccc(O)cc1)C(=O)N1CCC[C@H]1C(=O)N[C@@H](CCCNC(=N)N)C(=O)N[C@H](C(=O)N[C@@H](CC(N)=O)C(=O)N[C@H](C(=O)NCC(=O)N[C@@H](CO)C(=O)NCC(=O)N[C@H](C(=O)N1CCC[C@H]1C(N)=O)[C@@H](C)O)[C@@H](C)O)[C@@H](C)O)[C@@H](C)O [Salmon Calcitonin],Fraction transported across a Caco-2 monolayer,"Caco-2 monolayer [3]; in vitro, over 60 min, Youn et al. (2006)",0.05%
same,Fraction expected to be transported across the intestinal epithelium,Caco-2 monolayer [4],0.15%
